Test [1] concerns the target BAX, in vitro translated (UniProt Q07813). The experiment in a line: co-IP.
The target of test [2] is BAX, in vitro translated (UniProt Q07813 1-192). The experiment in a line: co-IP.

Results on 3 molecules are retold here after publication PMC3163439 (Molecular cell, 2009).

Sequence of BAX, in vitro translated (UniProt Q07813 1-192) (Q07813 whole entry): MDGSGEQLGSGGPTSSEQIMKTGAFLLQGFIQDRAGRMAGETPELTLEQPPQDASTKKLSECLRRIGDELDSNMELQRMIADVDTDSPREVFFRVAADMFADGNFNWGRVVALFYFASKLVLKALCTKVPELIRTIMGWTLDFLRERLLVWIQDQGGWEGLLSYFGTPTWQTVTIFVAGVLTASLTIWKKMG
Sequence of BAX, in vitro translated (UniProt Q07813) (Q07813 whole entry): as above

For the molecule “truncated BID (tBID), in vitro translated (domain or fragment)”, the stoichiometry N with BAX, in vitro translated [1] was determined as 1.

B1: PUMA, in vitro translated (natural protein, UniProt Q99ML1 1-193, looked up)
chain: MARARQEGSSPEPVEGLARDSPRPFPLGRLMPSAVSCSLCEPGLPAAPAAPALLPAAYLCAPTAPPAVTAALGGPRWPGGHRSRPRGPRPDGPQPSLSPAQQHLESPVPSAPEALAGGPTQAAPGVRVEEEEWAREIGAQLRRMADDLNAQYERRRQEEQHRHRPSPWRVMYNLFMGLLPLPRDPGAPEMEPN
B1: the “stoichiometry N” value with BAX, in vitro translated [2] was around 1.

B2: BIM, in vitro translated (natural protein, UniProt O54918 1-196, looked up)
chain: MAKQPSDVSSECDREGGQLQPAERPPQLRPGAPTSLQTEPQGNPDGEGDRCPHGSPQGPLAPPASPGPFATRSPLFIFVRRSSLLSRSSSGYFSFDTDRSPAPMSCDKSTQTPSPPCQAFNHYLSAMASIRQSQEEPEDLRPEIRIAQELRRIGDEFNETYTRRVFANDYREAEDHPQMVILQLLRFIFRLVWRRH
In the case of B2, the “stoichiometry N” value with BAX, in vitro translated [2] is around 1.
